Eight molecules from patent US20120093811A1 (published 2012) can be followed below.

Changes are numbered by the printed parent chain.

The labels stand for the following.
B1: humanized IgG antibody derived from clone F61 (antibody, V domains shown)
VH: QVQLVQSGAEVKQPGASVKVSCKASGYTFTGYNMYWVRQAPGQGLEWMGYIDPYNGDTTYNQKFKGRVTMTTDTSTSTAYMKLRSLRSDDTAVYYCARTSYYGGMDYWGRGTLVTVAS
VL: DIVMTQTPLSSPVTLGQPASISCRSSQSLVHSNGNTYLHWLQQRPGQPPRLLIYKVSNRFSGVPDRFSGSGAGTDFTLKISRVEAEDVGVYYCSQSTHVPRTFGQGTKLEIKR
notes: IgG
B2: humanized IgG antibody derived from clone HW78 (antibody, V domains shown)
VH: B1 VH with S25R, S77G
VL: B1 VL
notes: IgG
B3: humanized IgG antibody derived from clone A63 (antibody, V domains shown)
VH: B1 VH with E10K, V20A, K82E
VL: B1 VL
notes: IgG
B4: humanized IgG antibody derived from clone DI26 (antibody, V domains shown)
VH: B1 VH with E10K, V20A, N55S, K82E
VL: B1 VL
notes: IgG
B5: humanized IgG antibody derived from clone AW61 (antibody, V domains shown)
VH: B1 VH with V68A
VL: B1 VL
notes: IgG
B6: humanized scFv 1A (scFv)
scFv: QVQLVQSGAEVKQPGASVKVSCKASGYTFTGYNMYWVRQAPGQGLEWMGYIDPYNGDTTYNQKFKGRVTMTTDTSTSTAYMELRSLRSDDTAVYYCARTSYYGGMDYWGRGTLVTVASGGGASGGGGSGGGGSDIVMTQTPLSSPVTLGQPASISCRSSQSLVHSNGNTYLHWLQQRPGQPPRLLIYKVSNRFSGVPDRFSGSGAGTDFTLKISRVEAEDVGVYYCSQSTHVPRTFGQGTKLEIKR
notes: also called 1A scFv; clone 1A
B7: Source 1 VEGF-D, mature dimeric recombinant human VEGF-D (CSIRO) (ligand)
chain: FAATFYDIETLKVIDEEWQRTQCSPRETCVEVASELGKSTNTFFKPPCVNVFRCGGCCNEESLICMNTSTSYISKQLFEISVPLTSVPELVPVKVANHTGCKCLPTAPRHPYSIIRR
B8: Source 2 VEGF-D, purified recombinant human VEGF-D monomer (R&D Systems, Catalog Number 622-VD/CF) (ligand)
chain: FYDIETLKVIDEEWQRTQCSPRETCVEVASELGKSTNTFFKPPCVNVFRCGGCCNEESLICMNTSTSYISKQLFEISVPLTSVPELVPVKVANHTGCKCLPTAPRHPYS

Test [1] addresses B7. In words: cell-based or functional assay.
In test [2] the target is B8. Description: cell-based or functional assay.
The target of test [3] is B8. In words: SPR, IgG captured by anti-human IgG (Fc), Source 2 VEGF-D monomer as analyte.
Test [4] addresses B8. In words: SPR, KD against that of Ig-1A.
For test [5], the target named is B7. In words: SPR Protocol B, KD against that of Ig-1A. The method, then:
(§1) Protocol B: In the second assay format, Protocol B, the orientation of the IgGs and the VEGF-D antigen was reversed relative to Protocol A. The Source 1 VEGF-D dimer was immobilized directly on the chip surface by amine coupling and the murine anti-VEGF-D monoclonal antibody, Ig-1A or IgG variants flowed over this surface as analytes at concentrations of 4 nM, 1.33 nM, and 0.44 nM. This protocol allowed avidity effects to be controlled by reducing the density of dimeric VEGF-D immobilized on the chip and in effect reduce the bivalent binding properties of the system being analyzed.
(§2) All four flow cells on a CM5 chip were activated for 7 min at 25° C. using a mixture of NHS.EDC. Flow cell one was used as an unmodified (activated and blocked) reference against flow cells 2-4. Source 1 VEGF-D dimer was diluted to 1-3 μg/ml into 10 mM sodium acetate, pH 4, and injected over three surfaces for different lengths of time to achieve low ligand densities of 10, 15 and 20 RU to minimize avidity effects of the IgG. All surfaces were blocked for 7 min with ethanolamine (1M, pH 8.2) and pre-conditioned using five 10 s injections of 100 mM H₃PO₄; 1M NaCl. Immobilization steps were carried out at a flow rate of 30 μl/min using HBS-N running buffer.
(§3) All IgG binding experiments were performed at 25° C. using HBS-EP+ running buffer. Analytes (murine reference anti-VEGF-D monoclonal antibody and humanized variants) were injected for 200 s at a flow rate of 70 μl/min and dissociation monitored for 250 s. The antigen surfaces were regenerated with a 10 s pulse of 100 mM H₃PO₄; 1M NaCl. Analyte concentrations used for murine and humanized variants were 4 nM, 1.33 nM, and 0.44 nM. Data was processed using the reference surface and double referencing from blank injections. Binding constants for the IgG/antigen interactions were determined from the three antigen surfaces globally fitted to a 1:1 interaction model. Refractive index parameter was constant (RI=0).

Test [6] addresses B7. Description: SPR Protocol A, KD against that of Ig-1A. The method, then: (§4) Protocol A: The first assay format, Protocol A, used an assay system where IgGs were captured on a biosensor chip surface using an anti-human IgG (Fc) antibody and the Source 1 VEGF-D dimer run over the chip as the analyte in solution. This ensured that all IgG molecules were presented to the antigen in an active orientation.
(§5) The SPR protocol was slightly modified to compensate for the dimeric nature of the VEGF-D. Ig-1A or IgG variants were analyzed using an anti-human capture kit as described for Anti-human IgG (Fc) capture above, except that 1000 RU of the IgG or IgG variant was captured on the anti-human chip surface. […] The kinetics generated using this approach are accurate within the experimental parameters set. This standard assay protocol is best suited to studying 1:1 interactions and thus, may not be ideal for analyzing binding between the IgG variants and the VEGF-D dimer. In light of this, Protocol B was also used.

Test [7] concerns the target B7. Description: SPR Protocol A: IgG captured by anti-human Fc, VEGF-D dimer as analyte. The method, then: as §4, §5
The target in test [8] is B7. Description: SPR Protocol B: VEGF-D dimer amine-coupled, IgG as analyte. Here is the method:
as §1, §2, §3

Test [9] addresses T1, VEGF-D (recombinant human; source not given) (human, UniProt O43915 89-205, limits assumed).
T1 construct: also used here as target of IC50 values averaged over Source 1 and Source 2; also called vascular endothelial growth factor-D
T1 sequence: B7 chain
Description: SPR (BIAcore), purified 1A scFv on VEGF-D, average of three repeats. The method, then:
(§6) Kinetic values were obtained for the three humanized scFv variants, 1A, 3A and 4A (Table 2). All isolated scFv samples were purified as monomer peaks by anti-FLAG affinity and gel filtration chromatography. BIAcore™ analysis was performed by directly immobilizing VEGF-D on a CM5 surface using amine coupling, with the scFv run as the analyte. Analysis of binding was carried out using the BIAevaluation kinetic analysis software. All repeats were separate protein expressions and were performed at 25° C.
(§7) The binding of purified 1A scFv to VEGF-D was analyzed using a BIAcore™ biosensor (Table 3).

Test [10] has as its target T1, VEGF-D (recombinant human; source not …). Description: SPR (BIAcore), purified 1A scFv on VEGF-D, repeat 3. The method, then: as §6, §7
For test [11] the target is unchanged. In words: SPR (BIAcore), VEGF-D amine-coupled on CM5, purified scFv as analyte. Here is the method: scFv variants were fully characterized using a BIAcore™ biosensor. All isolated scFv samples were purified as monomer peaks by anti-FLAG affinity chromatography followed by gel filtration chromatography. BIAcore™ analysis was performed by directly immobilizing VEGF-D on a CM5 surface using amine coupling, with the scFv run as the analyte. Analysis of binding was carried out using the BIAevaluation kinetic analysis software. All repeats were separate protein expressions and were performed at 25° C.
Clones F61, A63, AR7, AW61, CJ37, DI126 and DA18 were produced in large-scale expression cultures and purified by anti-FLAG affinity chromatography and gel filtration. The binding kinetics against VEGF-D were then measured using a BIAcore™ biosensor as described previously.

Test [12] shares this target. Description: SPR (BIAcore), purified 1A scFv on VEGF-D, repeat 2. The method, then: as §6, §7
For test [13] the target is unchanged. In words: SPR (BIAcore), VEGF-D amine-coupled on CM5, purified scFv as analyte, 25 C. The method, then:
as §6

The target is the same in test [14]. Description: SPR (BIAcore), purified 1A scFv on VEGF-D, repeat 1. The method, then: as §6, §7
Test [15] deals with VEGFR-2-EpoR chimeric receptor on VEGFR-2-Ba/F3 cells (mouse, UniProt P35918 20-762). In words: cell-based or functional assay.
Sequence of VEGFR-2-EpoR chimeric receptor on VEGFR-2-Ba/F3 cells (P35918 20-762, change not shown): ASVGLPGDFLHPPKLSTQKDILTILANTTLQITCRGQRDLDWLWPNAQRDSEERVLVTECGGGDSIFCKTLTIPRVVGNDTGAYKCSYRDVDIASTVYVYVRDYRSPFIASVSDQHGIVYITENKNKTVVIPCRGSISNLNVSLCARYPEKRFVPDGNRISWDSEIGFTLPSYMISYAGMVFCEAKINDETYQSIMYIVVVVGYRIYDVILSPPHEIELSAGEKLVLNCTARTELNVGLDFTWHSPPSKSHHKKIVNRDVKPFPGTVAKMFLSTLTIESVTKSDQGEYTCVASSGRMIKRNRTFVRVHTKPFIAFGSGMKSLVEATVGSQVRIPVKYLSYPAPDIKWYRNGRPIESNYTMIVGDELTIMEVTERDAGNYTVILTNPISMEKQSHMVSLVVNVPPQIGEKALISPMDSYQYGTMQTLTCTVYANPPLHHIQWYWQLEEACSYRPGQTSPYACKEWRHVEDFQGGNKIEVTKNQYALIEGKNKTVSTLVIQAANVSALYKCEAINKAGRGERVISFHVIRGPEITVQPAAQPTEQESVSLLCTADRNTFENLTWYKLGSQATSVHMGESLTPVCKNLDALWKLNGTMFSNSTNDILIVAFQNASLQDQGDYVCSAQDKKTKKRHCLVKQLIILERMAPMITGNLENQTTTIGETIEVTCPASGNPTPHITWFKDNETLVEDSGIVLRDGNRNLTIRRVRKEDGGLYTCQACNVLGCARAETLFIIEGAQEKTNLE

As to B1, the “rank in the VEGFR-3-Ba/F3 bioassay” value in test [1] is 5 rank. Besides, the “rank in the VEGFR-3-Ba/F3 bioassay” value in test [2] amounted to 8 rank. Also, in test [3], the Kd worked out at 5 nM and the koff was 0.00824 s⁻¹. Further, the “Fold-improvement with respect to Ig-1A” value in [4] was 1.8 fold.

B2: the “rank in the VEGFR-3-Ba/F3 bioassay” value in test [1] turned out to be 4 rank; in [2] it was 7 rank. For the same molecule, the “Fold-improvement with respect to Ig-1A” value in test [5] stood at 5.5 fold; in [6], 2 fold. In addition, the Kd in [7] was 0.342 nM; in [8], 0.32 nM. For the same molecule, the off-rate constant (koff) in test [7] was about 0.00018 s⁻¹; in test [8] it was 0.0018 s⁻¹. The values for the kon in [7] and in test [8] were 510000 M⁻¹ s⁻¹ and 5.4e+06 M⁻¹ s⁻¹, respectively.

With B3, in test [3], the Kd turned out to be 7 nM, the koff worked out at 0.00677 s⁻¹ and the kon came out at 970000 M⁻¹ s⁻¹. The “Fold-improvement with respect to Ig-1A” value in [4] worked out at 1.3 fold.

B4: the “rank in the VEGFR-3-Ba/F3 bioassay” value in test [1] and in [2] was 2 rank each time. In addition, the “Fold-improvement with respect to Ig-1A” value in test [5] came to 2 fold; in [4] it was 2.2 fold; in test [6], 1 fold. In addition, the figures for the Kd in test [3], in test [7] and in [8] were 4.1 nM, 0.699 nM and 0.88 nM, respectively. The koff in test [3] was 0.0041 s⁻¹; in test [7], 0.00039 s⁻¹; in test [8], 0.0012 s⁻¹. The kon in test [3] turned out to be 1e+06 M⁻¹ s⁻¹; in [7], 560000 M⁻¹ s⁻¹; in test [8] it was 1.3e+06 M⁻¹ s⁻¹.

On to B5, for which the “rank in the VEGFR-3-Ba/F3 bioassay” value turned out to be 6 rank in test [1] and 4 rank in [2]. Further, in [3], the Kd came to 4.1 nM. Further, the koff in test [3] was 0.00725 s⁻¹. The “Fold-improvement with respect to Ig-1A” value in [4] was determined as 2.2 fold.

As to B6, the Kd in test [9] is 13.1 nM; in [10], 14.8 nM; in test [11] it was 13.1 nM; in test [12] it was 10.4 nM; in [13] it was 13.1 nM; in test [14], 14.2 nM. In addition, the koff came to 0.0108 s⁻¹ in [9]; 0.0104 s⁻¹ in test [10]; 0.0108 s⁻¹ in test [11]; 0.011 s⁻¹ in test [12]; 0.0109 s⁻¹ in test [13]; 0.0109 s⁻¹ in [14]. Besides, the kon in [9] is 845000 M⁻¹ s⁻¹; in [10] it was 707000 M⁻¹ s⁻¹; in [11] it was 845000 M⁻¹ s⁻¹; in test [12] it was 1.06e+06 M⁻¹ s⁻¹; in test [13] it was 769000 M⁻¹ s⁻¹; in test [14], 769000 M⁻¹ s⁻¹.

With B7, in test [15], the “concentration within EC50-EC80 for proliferation of VEGFR-2-Ba/F3 cells” value came out at 0.005 mg/L.

Take B8: the “concentration within EC50-EC80 for proliferation of VEGFR-2-Ba/F3 cells” value in test [15] came out at 0.1 mg/L.
